The supplement of paper PMC10567573

B1: CAMK2B (parent)
chain: YQQIKAGAYDFPSPEWDTVTPEAK

Variants of: B1
Assay: protein stability index of a GFP-peptide fusion (GPS, HEK-293T) (PSI 1-6); higher = more stable
Conditions: c terminus: a fixed tail appended
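Note: lentivirally expressed fusions sorted by FACS into six bins by GFP to DsRed ratio, PSI derived from sequencing read proportions per bin multiplied by bin number.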

Protein stability index, by site and new letter:
P21: K 3.76; D 4.05; Y 3.08; M 3.31; S 3.62; Q 3.91; W 2.53; R 3.2; F 2.78; H 3.42; I 3; E 4.3; N 3.78; C 3.29; L 3.28; V 3.42; A 3.44; G 3.65; T 3.6
P14: T 3.82; G 4.03; Q 3.87; I 3.4; F 2.67; R 3.37; Y 2.89; W 2.57; M 3.55; N 3.88; H 3.65; S 3.71; L 3.17; K 3.85; V 3.39
V19: N 3.97; Q 4.01; P 3.69; A 3.48; I 3.79; L 3.53; S 3.59; E 3.8; Y 2.16; G 3.92; R 2.99; F 1.97; M 3.95; C 3.82; T 3.96; D 4.23; H 4.01; K 3.66; W 2.79
W16: M 4.31; Y 3.53; P 4.64; R 3.54; N 4.55; I 4.2; K 3.45; T 4.39; D 4.79; E 4.46; H 4.35; F 4.16; Q 4.28; S 4.58; A 4.07; V 4.2; G 4.35; L 4.36; C 4.18
T18: A 3.69; L 3.35; Y 2.79; F 3.09; D 4.25; G 3.56; P 3.82; S 3.88; E 4.27; V 3.1; N 3.69; C 3.37; I 3.06; R 3.33; H 3.63; M 3.24; K 3.87; Q 4.03; W 1.85
D17: S 2.77; E 4.15; Y 2.88; P 3.27; I 2.76; F 2.07; R 2.57; H 2.85; K 2.69; N 3.15; Q 3.17; M 2.6; V 2.3; A 3.25; G 2.69; L 2.51; T 2.84; W 2; C 2.34
K24: S 3.93; Y 3.04; E 4.21; C 3.38; Q 3.81; D 4.11; W 2.63; N 4.11; A 3.78; M 3.27; G 3.93; I 3.59; R 3.43; P 3.37; F 2.71; H 3.6; V 3.55; L 3.1; T 3.47
T20: F 3.03; H 3.86; V 3.66; G 3.7; Q 3.34; K 3.41; W 2.46; P 3.18; C 3.51; D 4.31; M 3.16; E 3.93; L 3.15; I 3.16; S 3.74; A 3.48; R 3.47; N 3.91; Y 3.06
E22: I 3.05; M 2.63; P 2.93; C 2.82; L 2.98; A 2.9; F 2.3; K 2.93; S 2.97; W 2.08; Q 2.67; V 2.82; N 3.41; R 2.91; T 3.05; H 2.98; G 3.27; Y 2.46; D 3.89
E15: M 2.77; P 2.77; T 2.67; K 2.88; W 2.21; F 2.14; V 2.55; N 3.41; G 2.72; I 2.53; S 3.39; R 2.88; L 2.52; C 2.42; Y 1.99; D 3.86; H 2.91; Q 3.44; A 2.93
A23: T 3.74; L 2.81; V 3.27; P 3.48; Q 4.06; I 3.28; S 3.86; W 3.25; G 3.94; F 3.28; H 3.92; M 3.28; D 4.36; Y 3.43; E 4.05; K 3.82; N 3.97; R 3.69; C 2.98
